Source: the supplement of paper PMC7125110
± gives the standard error. For some assays here: Variants at the floor of the assay were thinned out.

B1: glmS ribozyme (parent)
chain: AUAAAAGCGCCAGAACUACAGAAAUGUAGUUGACGAGGAGGAGGUUUAUCGAAUUUUCGGCGGAUGCCUCCAAA

Legend:
Details in all cases: with glucosamine-6-phosphate
[1] = variants of: B1; assay: kcat; higher = faster cleavage; RNA array
Method in brief: (§1)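 kobs was derived by fitting per-tile medians to one- or two-exponential decays after normalising signals to baseline and to non-cleaving reference variants. Those signals came from barcoded ribozyme variants transcribed in situ by E. coli RNA polymerase on sequenced MiSeq chips, followed through a hybridised Cy3 probe at 37 °C and imaged over ~14 h. Glucosamine-6-phosphate (40 μM to 10 mM) in HEPES/KCl/Mg(OAc)2 buffer was flowed in. Weighted Michaelis–Menten fits across concentrations then gave kcat and KM.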

[2] = variants of: B1; assay: self-cleavage kobs at 40 uM GlcN6P; higher = faster cleavage; RNA array
Method in brief: as §1

[3] = variants of: B1; assay: self-cleavage kobs at 160 uM GlcN6P; higher = faster cleavage; RNA array
Method in brief: as §1

[4] = variants of: B1; assay: self-cleavage kobs at 640 uM GlcN6P; higher = faster cleavage; RNA array
Method in brief: as §1

[5] = variants of: B1; assay: KM; higher = weaker cofactor use; RNA array
Method in brief: as §1

[6] = variants of: B1; assay: self-cleavage kobs at 2500 uM GlcN6P; higher = faster cleavage; RNA array
Method in brief: as §1

[7] = variants of: B1; assay: self-cleavage kobs at 10000 uM GlcN6P; higher = faster cleavage; RNA array
Method in brief: as §1

Variant	kcat [1]	self-cleavage kobs at 40 uM GlcN6P [2]	self-cleavage kobs at 160 uM GlcN6P [3]	self-cleavage kobs at 640 uM GlcN6P [4]	KM [5]	self-cleavage kobs at 2500 uM GlcN6P [6]	self-cleavage kobs at 10000 uM GlcN6P [7]
U30A G37C	< 1e-05 s⁻¹	< 1e-05 s⁻¹	< 1e-05 s⁻¹	< 1e-05 s⁻¹	–	–	–
A14C U54C	0.00767 ± 0.0019 s⁻¹	0.000111 ± 1.2e-05 s⁻¹	0.000296 ± 4.4e-05 s⁻¹	0.000989 ± 0.00014 s⁻¹	3550 ± 1100 µM	0.00305 ± 0.00048 s⁻¹	0.00592 ± 0.00066 s⁻¹
C34U C58G	< 1e-05 s⁻¹	–	–	–	–	–	< 1e-05 s⁻¹
U45G U46A	0.00906 ± 0.0029 s⁻¹	0.000106 ± 1.7e-05 s⁻¹	0.000641 ± 0.00023 s⁻¹	0.000705 ± 0.00032 s⁻¹	3870 ± 1700 µM	–	0.00686 ± 0.0011 s⁻¹
U56C C70A	1.36e-05 ± 2.7e-06 s⁻¹	–	–	–	–	–	–
U57A U69A	3.14e-05 ± 6.3e-06 s⁻¹	–	–	–	–	3.75e-05 ± 1.1e-05 s⁻¹	–
U31A C50G U65C C67U	0.000126 ± 2.3e-05 s⁻¹	8.02e-05 ± 1.6e-05 s⁻¹	0.000177 ± 5e-05 s⁻¹	0.000147 ± 4.9e-05 s⁻¹	–	0.000191 ± 4.1e-05 s⁻¹	0.000104 ± 1.9e-05 s⁻¹
A15G G40A	0.0072 ± 0.0015 s⁻¹	0.000316 ± 8.2e-05 s⁻¹	0.000754 ± 0.00016 s⁻¹	0.00207 ± 0.00049 s⁻¹	1290 ± 400 µM	0.00475 ± 0.00096 s⁻¹	0.00713 ± 0.002 s⁻¹
G29A G32U	0.00277 ± 0.00084 s⁻¹	–	–	7.58e-05 ± 1.8e-05 s⁻¹	–	0.000325 ± 5.7e-05 s⁻¹	0.000888 ± 0.00014 s⁻¹
A14C U69A	0.000125 ± 1.5e-05 s⁻¹	–	2.61e-05 ± 1.2e-05 s⁻¹	9.86e-05 ± 1.9e-05 s⁻¹	380 ± 170 µM	0.000115 ± 1.8e-05 s⁻¹	0.00011 ± 1.8e-05 s⁻¹
A33U U55G	0.000103 ± 1e-05 s⁻¹	–	–	3.4e-05 ± 1.3e-05 s⁻¹	1990 ± 570 µM	5.38e-05 ± 7.7e-06 s⁻¹	8.77e-05 ± 1e-05 s⁻¹
G32A G44A	6.55e-05 ± 1.7e-05 s⁻¹	–	–	–	–	–	–
G59C U69A	2.45e-05 ± 5.3e-06 s⁻¹	–	–	–	–	–	–
A12U U56C	0.0355 ± 0.014 s⁻¹	0.000487 ± 0.00011 s⁻¹	0.00159 ± 0.00028 s⁻¹	0.00808 ± 0.0013 s⁻¹	2940 ± 1400 µM	–	0.0251 ± 0.0075 s⁻¹
A6C C50G	2.11e-05 ± 7.4e-06 s⁻¹	–	–	–	–	–	–
G32U G41U	0.000152 ± 3.7e-06 s⁻¹	–	–	4.19e-05 ± 1.5e-05 s⁻¹	1640 ± 170 µM	9.36e-05 ± 1.9e-05 s⁻¹	0.00013 ± 1e-05 s⁻¹
A12U A39C	0.00341 ± 0.00095 s⁻¹	9.51e-05 ± 1.7e-05 s⁻¹	0.000149 ± 2.7e-05 s⁻¹	0.000656 ± 8.7e-05 s⁻¹	2770 ± 1100 µM	0.00163 ± 0.00023 s⁻¹	0.00266 ± 0.00035 s⁻¹
